Literature values in article PMC5473928.
Several values for one entry are separate records, joined by “and”; a condition that tells them apart may be missing. Equal values may be shown once.

Target: SOS allosteric site (Homo sapiens) (UniProt Q07889)

For KRas (from UniProt P01116), which Kd is on record?
Its Kd is 3.6 µM and 10 µM.
